Source: the nanobody polyreactivity screen of Harvey et al. (2022)

Assay: yeast display, Sf9 membrane polyspecificity reagent, FACS + sequencing; frameworks hold sequencing errors
Outline: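 A nanobody's polyreactivity label depends on the gate it was sorted from. Yeast display cells were stained with 10% biotinylated, detergent-solubilized Sf9 membrane reagent for 1 hour at 4 °C, enriched on streptavidin microbeads and sorted by FACS. The low and high (top ~1%) gates were set on anti-HA fluorescence for expression and streptavidin fluorescence for reagent binding.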

Sequence | polyreactivity (PSR sort gate)
QVQLVESGGGLVQAGGSLRLSCAASGSIFEPYAMGWYRTAPGKERELVAAISSGGSTNYADSVKGRFTISRDNAKNTVYLQMNSLKPEVTAVYYCAAAYYTVGWLYYDYWYPFAYYYWGQGTQVTVSS | low polyreactivity
QVQLVETGGGLVQAGGSLRLSCAASGSIFLYYAMGWYRQAHGKERELVAAITSGGSTNYADSVKGRFTISRDNAKNTVYLQMNSLKPEDTAVYYCAARHPYRFWGQGTKVTVSS | high polyreactivity
QVQLQESGGGLVQAGGSLRPSCEASGNISLNVYMCWYRQAPGKEREFVAGTADGATTNYADSVKGRFTISRDNAKNTVFLQMNSLKPEDTAVYDCIKDYGYVQLRFYGPGYYWGQGTQVTVSS | low polyreactivity
QVQLVESGGGLVQAGGSLRLSCAASGSTFSRYAMGWYRQAPGKERELVAAISWSGGRTNYADSVKGRFTISRDNAKNTVYLQMNSLKPEDTAVYYCNAPFRHRYRVDYWGQGTQVTVSS | high polyreactivity
QVQLVESGGGLVQAGGSLRLSCAASGRTFPYYAMGWYRQAPGKERELVAAISSSGGRTYYADSVKGRFTISRDNAKNTVYLQMNSLKPEDTAVYYRNVDAWYPYQGFLVGYYYWGQGTQVTVSS | low polyreactivity
QVQLVESGGGLVQAGGSLRLSCAASGSIFITYAMGWYRQAHGKERELVAAIRDSGDRTYYADSVKGRFTISRDNAKNTVYLQMNSLKPEDTAVYYCNKDIERYVRIYDSWGQGTQVTVSS | low polyreactivity
QVQLVESGGGLVQAGGSLRLICAASGFTFPPYAMGGYRQAPGKERELVAAITSSGGRTYYAYSVKGRFTISRDNAKNTVYLQMNSLKPEDTAFYYCAAYGRFARMNYWGQGTQVTVSS | high polyreactivity
QVQLVESGGGLVQAGGSLRLSCAASGSIFGLYAMGWYRQAPGKERELVAAISSSGGTTYYADSVKGRFTISRDNEKNTVYLQMNSLKPEDTAVYYCATDYYDDVTIGYDYWGQGTQVTVSS | low polyreactivity
QVQLLESGGGLVQAGGSLRLSCAASGSIFYPYAMGWHRQAPGKERELVAAISYSGGSTYYADSVKGSFTISRDNAKNTVYLQMNSLKPEDSAVYYCAASVFRGSATYDSWGQGTHVTVSS | high polyreactivity
QVHLVESGGGLVQAGGSLRLSCAASGSIFWANAMGWYSQAPGKERELVAAINFRATITYYADSVKGRFTISRDIAKNTFYLQMISLKPEDTAVYYCAGDSYECWYDYWGQGTEVTVSS | high polyreactivity
QVQLVESWGGLVQAGGSLRISCAASGRTFVRNALGWYRHAPGKEREMVAGITRSGGSTYYADSVKGRFTISRDNAKNTVYLQMNSLKPEDTAVYYCATQYRYYNHFVTPFTRYGYWGQGTQLTVSS | high polyreactivity
QVQLVESGGGLVQAGGSLRLSCAASGRTFKSYTLGWYRQAPGKEREFVAAISSRGGNTYYADSVNGRFTISRDNAKNTVYLQMNSLKPEDTAVYYSAAESSFWSFPTYDYWGQGTQVTVSS | high polyreactivity
QVQLVDSGGGLVQAGGSLRLSCAASGSTFRYNAMGWYRQAPGKERELVAAIDKRGDSTYADSVKGRFTISRDNAKNTVYLQMNSLKPEDTAVYYCAADSDSKYNYGFLWDTYEYWGQGTQVTVSS | low polyreactivity
QVQLVESGGGLVQAGGSLRLICAASGSIFTYYTMGWYRQAPGKERELVAAIRWSAGRTYYADSVKGRFTISRDNAKNSVYLQMNSLKPEDTSVYYCAAAERLRHGLKFDYWGQGTQVTVSS | high polyreactivity
QVQLVESGGGLVQAGGSLRLSCAASGRIFRSYVMGWYRQAPGKERELVAVISKNGGTTYYADSVKGRFTISRDNAKNTVYFQRNSLKPEDTAVYYCAARRLGYYRKVKELDYWGQGTQVTVSS | high polyreactivity
QVQLVESGRGLVQAGGSLRLSCAASGRTLAFNAMGWYRQAPGKERELVAVIRNGTSTNYADSVKGRFTISRDNAKNTVYLQMNSLKPEDTAVYYCNVPYYLPSYLSGYDYWGQGTQVTVSS | low polyreactivity
QVQLVESGGGLVQAGGSLRLSCAASGSIFTDNVMGWYRQAPGKERELVAAITYSAASTYYADSVKGRFTISRDNAKNTVYLQMNSLKPEDTAVYYCATEYYIGVNYRGDYWGQGTQVTVSS | low polyreactivity
